Experimental data: patent publication US20200024330A1

Assays:
Assay in all cases: cell-based or functional assay
[1] = target: HIV-1 93MW959 envelope glycoprotein (Env) on pseudovirus (HIV-1)
[2] = target: HIV-1 Env of isolate 92UG001 (clade D) (HIV-1)
[3] = target: HIV-1 Env of isolate 92UG024 (HIV-1)
[4] = target: HIV-1 Env of isolate MGRM-D-019 (clade D) (HIV-1)
[5] = target: HIV-1 Env of isolate MGRM-D-020 (HIV-1)
[6] = target: HIV-1 Env of isolate MGRM-D-024 (clade D) (HIV-1)
[7] = target: HIV-1 Env of isolate MGRM-G-001 (subtype G) (HIV-1)
[8] = target: HIV-1 Env of isolate MGRM-G-011 (clade G pseudovirus) (HIV-1)
[9] = target: HIV-1 Env of isolate MGRM-G-016 (clade G pseudovirus) (HIV-1)
[10] = target: HIV-1 Env of isolate MGRM-G-017 (clade G pseudovirus) (HIV-1)
[11] = target: HIV-1 MGRM-A-012 envelope glycoprotein (Env) (HIV-1)
[12] = target: HIV-1 MGRM-C-012 Env (HIV-1)
[13] = target: HIV-1 MGRM-C-023 Env (HIV-1)
[14] = target: HIV-1 MGRM-F1-010 Env (pseudovirus) (HIV-1)
[15] = target: HIV-1 MGRM-F1-020 Env (pseudovirus) (HIV-1)
[16] = target: HIV-1 6535.3 Env (pseudovirus) (HIV-1)
[17] = target: HIV-1 APV_13 Env (pseudovirus) (HIV-1)
[18] = target: HIV-1 Env of isolate MG RM-D-016 (subtype D) (HIV-1)
[19] = target: HIV-1 Env of isolate MGRM-C-005 (pseudovirus) (HIV-1 isolate MGRM-C-005, subtype C)
[20] = target: HIV-1 Env of isolate MGRM-C-007 (pseudovirus) (HIV-1 isolate MGRM-C-007, subtype C)
[21] = target: HIV-1 Env of isolate MGRM-C-026 (pseudovirus) (HIV-1 isolate MGRM-C-026, subtype C)
[22] = target: HIV-1 Env of isolate MGRM-F1-006 (subtype F) (HIV-1)
[23] = target: HIV-1 Env of isolate MGRM-F1-010 (subtype F) (HIV-1)
[24] = target: HIV-1 Env of isolate MGRM-F1-015 (HIV-1)
[25] = target: HIV-1 JR-CSF Env E172A (HIV-1 (isolate JR-CSF)) (UniProt P20871)
[26] = target: HIV-1 JR-CSF Env E466A (HIV-1 (isolate JR-CSF)) (UniProt P20871)
[27] = target: HIV-1 JR-CSF Env N197A (HIV-1 (isolate JR-CSF)) (UniProt P20871)
[28] = target: HIV-1 Env of isolate 6535.3 (pseudovirus) (HIV-1 isolate 6535.3, subtype B)
[29] = target: HIV-1 Env of isolate 92WR020 (HIV-1)
[30] = target: HIV-1 Env of isolate 93TH305 (pseudovirus) (HIV-1 isolate 93TH305, subtype B)
[31] = target: HIV-1 Env of isolate 93WR029 (HIV-1)
[32] = target: HIV-1 Env of isolate CAAN.A2 (HIV-1)
[33] = target: HIV-1 Env of isolate MGRM-A-008 (clade A), on pseudovirus (HIV-1)
[34] = target: HIV-1 Env of isolate MGRM-C-006 (HIV-1)
[35] = target: HIV-1 Env of isolate MGRM-C-010 (HIV-1)
[36] = target: HIV-1 Env of isolate MGRM-C-013 (HIV-1)
[37] = target: HIV-1 Env of isolate MGRM-C-020 (HIV-1)
[38] = target: HIV-1 Env of isolate MGRM-F1-021 (subtype F), on pseudovirus (HIV-1)
[39] = target: HIV-1 Env of isolate SC422661.8 (HIV-1)
[40] = target: HIV-1 Env of isolate TRJ04551.58 (HIV-1)

1496_C09 (PG9) (TCN-109) (antibody)
IC50 (µg/ml), pseudovirus neutralization [1]: 0.04 µg/mL | IC50 (µg/ml), pseudovirus neutralization [2]: 41.8 µg/mL | IC50 (µg/mL), pseudovirus neutralization [3]: 1.86 µg/mL | IC50 (µg/ml), pseudovirus neutralization [4]: 0.03 µg/mL | IC50 (µg/mL), pseudovirus neutralization [5]: 1.67 µg/mL | IC50 (µg/ml), pseudovirus neutralization [6]: 0.03 µg/mL | neutralization IC50 [7]: 0.166 µg/mL | IC50 (µg/ml), pseudovirus neutralization [8]: 0.19 µg/mL | IC50 (µg/ml), pseudovirus neutralization [9]: 0.4 µg/mL | IC50 (µg/ml), pseudovirus neutralization [10]: 0.03 µg/mL | IC50 (µg/ml), pseudovirus neutralization [11]: 11.2 µg/mL | IC50 [12]: 0.24 µg/mL | IC50 [13]: 0.51 µg/mL | IC50 (µg/ml), pseudovirus neutralization [14]: 0.03 µg/mL | IC50 (µg/ml), pseudovirus neutralization [15]: 4.55 µg/mL

4838_L06 (PGT-121) (antibody)
IC50, pseudovirus neutralization [16]: 0.005 µg/mL | IC50, pseudovirus neutralization [17]: 0.251 µg/mL | IC50 (µg/mL), pseudovirus neutralization [18]: > 50 µg/mL | IC50 (µg/mL) neutralization [19]: 0.015 µg/mL | IC50 (µg/mL) neutralization [20]: 0.196 µg/mL | IC50 (µg/mL) neutralization [21]: 0.002 µg/mL | IC50 (µg/mL), pseudovirus neutralization [22]: 5.33 µg/mL | IC50 (µg/mL), pseudovirus neutralization [23]: 0.016 µg/mL | IC50 [24]: 28.4 µg/mL

4858_P08 (PGT-123) (antibody)
IC50, pseudovirus neutralization [16]: 0.004 µg/mL | IC50, pseudovirus neutralization [17]: 0.138 µg/mL | IC50 (µg/mL), pseudovirus neutralization [18]: > 50 µg/mL | IC50 (µg/mL) neutralization [19]: 0.012 µg/mL | IC50 (µg/mL) neutralization [20]: 0.547 µg/mL | IC50 (µg/mL) neutralization [21]: 0.001 µg/mL | IC50 (µg/mL), pseudovirus neutralization [22]: 6.89 µg/mL | IC50 (µg/mL), pseudovirus neutralization [23]: 0.016 µg/mL | IC50 [24]: > 50 µg/mL | Fold IC50 increase relative to wild-type [25]: 1.1 fold | Fold IC50 increase relative to wild-type [26]: 0.6 fold | Fold IC50 increase relative to wild-type [27]: 1.4 fold

4877_D15 (PGT-122) (antibody)
IC50, pseudovirus neutralization [16]: 0.006 µg/mL | IC50, pseudovirus neutralization [17]: 0.778 µg/mL | IC50 (µg/mL), pseudovirus neutralization [18]: > 50 µg/mL | IC50 (µg/mL) neutralization [19]: 0.027 µg/mL | IC50 (µg/mL) neutralization [20]: 3.35 µg/mL | IC50 (µg/mL) neutralization [21]: 0.006 µg/mL | IC50 (µg/mL), pseudovirus neutralization [22]: 3.27 µg/mL | IC50 (µg/mL), pseudovirus neutralization [23]: 0.024 µg/mL | IC50 [24]: 31.4 µg/mL

5114_A19 (PGT-128) (antibody)
IC50 (µg/mL) neutralization [28]: 0.011 µg/mL | IC50 [3]: > 50 µg/mL | neutralization IC50 [29]: 0.005 µg/mL | IC50 (µg/mL) neutralization [30]: 0.006 µg/mL | neutralization IC50 [31]: > 50 µg/mL | IC50 [32]: 1.48 µg/mL | IC50, single-round pseudovirus neutralization [33]: > 50 µg/mL | IC50 [34]: 0.014 µg/mL | IC50 [35]: > 50 µg/mL | IC50 [36]: > 50 µg/mL | IC50 [37]: 5.85 µg/mL | IC50 [5]: 0.011 µg/mL | IC50, pseudovirus neutralization [38]: > 50 µg/mL | IC50 [39]: 1.58 µg/mL | IC50 [40]: 0.019 µg/mL | Fold IC50 increase relative to wild-type [25]: 2.5 fold | Fold IC50 increase relative to wild-type [26]: 0.6 fold | Fold IC50 increase relative to wild-type [27]: 1 fold

5123_A06 (PGT-125) (antibody)
IC50, pseudovirus neutralization [16]: 0.01 µg/mL | IC50, pseudovirus neutralization [17]: 0.007 µg/mL | IC50 (µg/mL), pseudovirus neutralization [18]: 0.12 µg/mL | IC50 (µg/mL) neutralization [19]: 2.09 µg/mL | IC50 (µg/mL) neutralization [20]: > 50 µg/mL | IC50 (µg/mL) neutralization [21]: 0.005 µg/mL | IC50 (µg/mL), pseudovirus neutralization [22]: 0.035 µg/mL | IC50 (µg/mL), pseudovirus neutralization [23]: > 50 µg/mL | IC50 [24]: > 50 µg/mL | Fold IC50 increase relative to wild-type [25]: 1.8 fold | Fold IC50 increase relative to wild-type [26]: 1.6 fold | Fold IC50 increase relative to wild-type [27]: 1 fold

5136_H01 (PGT-131) (antibody)
IC50 (µg/mL) neutralization [28]: 0.056 µg/mL | IC50 [3]: > 50 µg/mL | neutralization IC50 [29]: 0.168 µg/mL | IC50 (µg/mL) neutralization [30]: 0.016 µg/mL | neutralization IC50 [31]: > 50 µg/mL | IC50 [32]: > 50 µg/mL | IC50, single-round pseudovirus neutralization [33]: > 50 µg/mL | IC50 [34]: 0.611 µg/mL | IC50 [35]: > 50 µg/mL | IC50 [36]: > 50 µg/mL | IC50 [37]: > 50 µg/mL | IC50 [5]: > 50 µg/mL | IC50, pseudovirus neutralization [38]: > 50 µg/mL | IC50 [39]: > 50 µg/mL | IC50 [40]: 0.088 µg/mL | Fold IC50 increase relative to wild-type [26]: 1.7 fold | Fold IC50 increase relative to wild-type [27]: 1.1 fold

5141_B17 (PGT-126) (antibody)
IC50, pseudovirus neutralization [16]: 0.022 µg/mL | IC50, pseudovirus neutralization [17]: 0.012 µg/mL | IC50 (µg/mL), pseudovirus neutralization [18]: > 50 µg/mL | IC50 (µg/mL) neutralization [19]: 0.298 µg/mL | IC50 (µg/mL) neutralization [20]: 25.3 µg/mL | IC50 (µg/mL) neutralization [21]: 0.007 µg/mL | IC50 (µg/mL), pseudovirus neutralization [22]: 0.078 µg/mL | IC50 (µg/mL), pseudovirus neutralization [23]: > 50 µg/mL | IC50 [24]: > 50 µg/mL | Fold IC50 increase relative to wild-type [25]: 0.7 fold | Fold IC50 increase relative to wild-type [26]: 1.4 fold | Fold IC50 increase relative to wild-type [27]: 1.1 fold

5145_B14 (PGT-127) (antibody)
IC50, pseudovirus neutralization [16]: 0.02 µg/mL | IC50, pseudovirus neutralization [17]: 0.026 µg/mL | IC50 (µg/mL), pseudovirus neutralization [18]: > 50 µg/mL | IC50 (µg/mL) neutralization [19]: 0.57 µg/mL | IC50 (µg/mL) neutralization [20]: > 50 µg/mL | IC50 (µg/mL) neutralization [21]: 0.014 µg/mL | IC50 (µg/mL), pseudovirus neutralization [22]: 7.17 µg/mL | IC50 (µg/mL), pseudovirus neutralization [23]: > 50 µg/mL | IC50 [24]: > 50 µg/mL | Fold IC50 increase relative to wild-type [25]: 2.1 fold | Fold IC50 increase relative to wild-type [26]: 0.9 fold | Fold IC50 increase relative to wild-type [27]: 0.6 fold

5329_C19 (PGT-136) (antibody)
IC50 (µg/mL) neutralization [28]: > 50 µg/mL | IC50 [3]: 0.052 µg/mL | neutralization IC50 [29]: 2.33 µg/mL | IC50 (µg/mL) neutralization [30]: 20.2 µg/mL | neutralization IC50 [31]: > 50 µg/mL | IC50 [32]: > 50 µg/mL | IC50, single-round pseudovirus neutralization [33]: > 50 µg/mL | IC50 [34]: > 50 µg/mL | IC50 [35]: > 50 µg/mL | IC50 [36]: > 50 µg/mL | IC50 [37]: > 50 µg/mL | IC50 [5]: > 50 µg/mL | IC50, pseudovirus neutralization [38]: > 50 µg/mL | IC50 [39]: > 50 µg/mL | IC50 [40]: > 50 µg/mL
